T1: IL1RAP on H1975 cells (human, UniProt Q9NPH3 21-570)
T1 construct: whole, on cells; also called ILIRAP; H1975 tumor cell line expressing ILIRAP
T1 sequence (looked up): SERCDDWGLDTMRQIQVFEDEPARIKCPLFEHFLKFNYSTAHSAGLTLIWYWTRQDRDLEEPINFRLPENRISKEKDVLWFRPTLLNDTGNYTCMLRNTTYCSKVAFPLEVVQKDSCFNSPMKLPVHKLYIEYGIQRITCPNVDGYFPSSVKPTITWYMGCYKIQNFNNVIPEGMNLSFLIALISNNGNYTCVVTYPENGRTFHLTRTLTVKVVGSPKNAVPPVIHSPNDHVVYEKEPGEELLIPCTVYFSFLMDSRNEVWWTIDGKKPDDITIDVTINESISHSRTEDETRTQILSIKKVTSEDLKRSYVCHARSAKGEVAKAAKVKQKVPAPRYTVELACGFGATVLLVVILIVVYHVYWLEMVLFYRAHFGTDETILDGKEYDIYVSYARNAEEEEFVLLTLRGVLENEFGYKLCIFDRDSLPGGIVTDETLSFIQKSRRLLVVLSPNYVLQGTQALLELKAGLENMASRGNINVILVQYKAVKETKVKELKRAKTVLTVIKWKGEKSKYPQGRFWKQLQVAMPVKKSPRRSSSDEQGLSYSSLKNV


Columns and labels:
[1] = target: T2, Vβ17 (TRBV19) T cell receptor on Vβ17+CD8+ T cells (human); experiment: flow cytometry on M1 peptide expanded CD8+ T cells, PE anti-human IgG4 secondary, % binding; bottom left panel, second EC50 line, square curve (right of the circles)
T2 construct: whole, on cells; also called Vβ17+ T cells
T2 sequence (A0A075B6N1 22-114): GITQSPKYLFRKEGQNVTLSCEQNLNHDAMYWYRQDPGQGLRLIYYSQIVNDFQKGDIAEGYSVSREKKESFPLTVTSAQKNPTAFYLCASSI
Procedure: (§1) Binding of Vβ17 bispecific antibodies to its respective tumor associated antigen (TAA) expressing cell line and CD8+ T cells was carried out by flow cytometry. Briefly, 50,000 target cells or CD8+ T cells were incubated at 4° C. for 45 minutes with serial dilutions of various bispecific antibodies or its null arm control bispecific antibodies. After washing with wash buffer (PBS+2% FBS), bispecific antibody bound to cell surface was detected by incubating the cells with PE labelled mouse anti human IgG4 secondary antibody (SouthernBiotech, Birmingham, AL) for 30 minutes at 4° C. Cells were washed with wash buffer (PBS+2% FBS) and the fluorescence of stained cells was measured on Novocyte flow cytometer. Cells were visualized on forward and sideward scatter and doublets were excluded. No secondary antibody control was used to establish background fluorescence and to gate on specific population. Background value was subtracted from main samples to get specific binding value. […] For all binding assays, tumor associated antigen (TAA) expression on cell lines and the abundance of Vβ17+ cells among Pan-T cells or CD8+ T cells were assessed by staining them with specific monoclonal antibody.
(§2) Mouse anti-human IgG4 Fc-PE secondary antibody was used to detect the bispecific antibody using FACS method.

[2] = target: T2, Vβ17 (TRBV19) T cell receptor on …; experiment: flow cytometry on total (Vβ17 non-depleted) CD8+ T cells from PBMCs, % binding
Procedure: as §1

[3] = target: T3, CD123 on Kasumi-3 cells (UniProt P26951 19-378, limits assumed); experiment: flow cytometry on Kasumi-3 cells, % binding; top left panel
T3 construct: whole, on cells; also called tumor associated antigen (TAA) on Kasumi-3
T3 sequence (P26951 19-378 limits assumed): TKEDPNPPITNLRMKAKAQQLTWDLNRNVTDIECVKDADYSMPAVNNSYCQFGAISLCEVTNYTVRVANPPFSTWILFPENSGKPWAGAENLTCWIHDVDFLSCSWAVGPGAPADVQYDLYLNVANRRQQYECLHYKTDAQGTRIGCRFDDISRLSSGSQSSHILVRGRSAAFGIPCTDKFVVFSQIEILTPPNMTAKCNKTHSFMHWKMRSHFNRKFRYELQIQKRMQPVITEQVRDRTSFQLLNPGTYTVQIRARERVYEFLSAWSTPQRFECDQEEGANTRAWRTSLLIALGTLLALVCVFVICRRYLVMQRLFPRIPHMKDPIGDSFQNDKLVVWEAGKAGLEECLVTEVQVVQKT

[4] = target: T1, IL1RAP on H1975 cells; experiment: flow cytometry on H1975 cells, % binding; top right panel
[5] = target: T2, Vβ17 (TRBV19) T cell receptor on …; experiment: flow cytometry on M1 peptide expanded CD8+ T cells, PE anti-human IgG4 secondary, % binding; bottom middle panel, second EC50 line, square curve (right of the circles)
Procedure: as §1, §2

[6] = target: T2, Vβ17 (TRBV19) T cell receptor on …; experiment: flow cytometry on M1 peptide expanded CD8+ T cells, PE anti-human IgG4 secondary, % binding; bottom right panel, second EC50 line, square curve (right of the circles)
Procedure: as §1, §2

[7] = target: T4, PSMA on 22Rv1 cells (human, UniProt Q04609 1-750); experiment: flow cytometry on 22Rv1 cells, % binding; top middle panel
T4 construct: whole, on cells; also called 22Rv1 tumor cell line expressing PSMA
T4 sequence (Q04609 whole entry): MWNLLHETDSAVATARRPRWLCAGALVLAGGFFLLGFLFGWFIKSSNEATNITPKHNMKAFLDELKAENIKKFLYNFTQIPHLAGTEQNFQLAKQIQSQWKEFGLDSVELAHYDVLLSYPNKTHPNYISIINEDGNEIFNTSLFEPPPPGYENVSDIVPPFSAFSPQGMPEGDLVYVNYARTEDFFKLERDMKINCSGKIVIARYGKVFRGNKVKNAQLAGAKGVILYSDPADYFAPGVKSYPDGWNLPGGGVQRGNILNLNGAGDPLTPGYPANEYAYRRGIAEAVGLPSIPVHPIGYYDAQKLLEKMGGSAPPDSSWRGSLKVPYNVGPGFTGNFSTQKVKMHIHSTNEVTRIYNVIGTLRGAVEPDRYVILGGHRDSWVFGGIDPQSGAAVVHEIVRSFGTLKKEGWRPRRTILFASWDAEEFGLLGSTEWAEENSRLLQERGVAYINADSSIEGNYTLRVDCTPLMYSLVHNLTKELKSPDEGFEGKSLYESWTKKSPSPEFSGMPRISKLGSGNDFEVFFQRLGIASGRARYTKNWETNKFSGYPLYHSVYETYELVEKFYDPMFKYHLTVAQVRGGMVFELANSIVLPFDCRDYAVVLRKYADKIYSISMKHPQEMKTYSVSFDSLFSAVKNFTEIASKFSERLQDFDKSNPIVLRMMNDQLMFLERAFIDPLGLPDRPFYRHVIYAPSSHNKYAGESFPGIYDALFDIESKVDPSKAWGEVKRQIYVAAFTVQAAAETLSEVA

[8] = target: T1, IL1RAP on H1975 cells; experiment: flow cytometry on H1975 cells expressing IL1RAP, detected with anti-human IgG4 Fc-PE
Procedure: as §1

[9] = target: T2, Vβ17 (TRBV19) T cell receptor on …; experiment: flow cytometry on enriched M1 peptide-stimulated CD8+ T cells (day 14), frequency of positive cells, anti-human IgG4 Fc-PE
Procedure: as §1, §2

[10] = target: T2, Vβ17 (TRBV19) T cell receptor on …; experiment: flow cytometry on M1 peptide expanded CD8+ T cells, PE anti-human IgG4 secondary, % binding; bottom right panel, first EC50 line, circle curve (left of the squares)
Procedure: as §1, §2

Binder | EC50 [1] | EC50 (read off the curve) [2] | binding result [3] | binding result [4] | EC50 [5] | EC50 [6] | binding result [7] | EC50 [8] | EC50 [9] | EC50 [10]
Vβ17/Null (bispecific antibody, human IgG4 S228P, kappa, F234A L235A, also called Vβ17/NULL arm control bispecific antibody; Vβ17XNULL) Vβ17 half antibody (B17B21; light chain, linker and heavy chain in one polypeptide): DIQMTQSPSSLSASVGDRVTITCRSSQSLVHSNGNTYLHWYQQKPGKAPKFLIYKVSNRFSGVPSRFSGSGSGTDFTLTISSLQPEDFATYYCSQSTHVPFTFGQGTKLEIKRTVAAPSVFIFPPSDEQLKSGTASVVCLLNNFYPREAKVQWKVDNALQSGNSQESVTEQDSKDSTYSLSSTLTLSKADYEKHKVYACEVTHQGLSSPVTKSFNRGECGGSEGKSSGSGSESKSTEGKSSGSGSESKSTGGSQVQLQESGPGLVKPSETLSLTCTVSGYSITSGYFWNWIRQPPGKGLEWIGYISYDGSNNYNPSLKSRVTISRDTSKNQFSLKLSSVTAADTAVYYCASPSPGTGYAVDYWGQGTLVTVSSASTKGPSVFPLAPCSRSTSESTAALGCLVKDYFPEPVTVSWNSGALTSGVHTFPAVLQSSGLYSLSSVVTVPSSSLGTKTYTCNVDHKPSNTKVDKRVESKYGPPCPPCPAPEAAGGPSVFLFPPKPKDTLMISRTPEVTCVVVDVSQEDPEVQFNWYVDGVEVHNAKTKPREEQFNSTYRVVSVLTVLHQDWLNGKEYKCKVSNKGLPSSIEKTISKAKGQPREPQVYTLPPSQEEMTKNQVSLSCAVKGFYPSDIAVEWESNGQPENNYKTTPPVLDSDGSFFLVSRLTVDKSRWQEGNVFSCSVMHEALHNRFTQKSLSLSLGK null half antibody (B23B49; light chain, linker and heavy chain in one polypeptide): not shown | 2.4 nM | ~0.3 µg/mL | no binding (tested: about 5 µg/mL) | no binding (tested: about 30 µg/mL) | 3.75 nM | 2.8 nM | no binding (tested: 10 µg/mL) |  |  | 
Vβ17/IL1RAP bispecific antibody (bispecific antibody, human IgG4 S228P, kappa, lambda, F234A L235A, also called Vβ17XIL1RAP) chain 1: DIQMTQSPSSLSASVGDRVTITCRSSQSLVHSNGNTYLHWYQQKPGKAPKFLIYKVSNRFSGVPSRFSGSGSGTDFTLTISSLQPEDFATYYCSQSTHVPFTFGQGTKLEIKRTVAAPSVFIFPPSDEQLKSGTASVVCLLNNFYPREAKVQWKVDNALQSGNSQESVTEQDSKDSTYSLSSTLTLSKADYEKHKVYACEVTHQGLSSPVTKSFNRGECGGSEGKSSGSGSESKSTEGKSSGSGSESKSTGGSQVQLQESGPGLVKPSETLSLTCTVSGYSITSGYFWNWIRQPPGKGLEWIGYISYDGSNNYNPSLKSRVTISRDTSKNQFSLKLSSVTAADTAVYYCASPSPGTGYAVDYWGQGTLVTVSSASTKGPSVFPLAPCSRSTSESTAALGCLVKDYFPEPVTVSWNSGALTSGVHTFPAVLQSSGLYSLSSVVTVPSSSLGTKTYTCNVDHKPSNTKVDKRVESKYGPPCPPCPAPEAAGGPSVFLFPPKPKDTLMISRTPEVTCVVVDVSQEDPEVQFNWYVDGVEVHNAKTKPREEQFNSTYRVVSVLTVLHQDWLNGKEYKCKVSNKGLPSSIEKTISKAKGQPREPQVYTLPPSQEEMTKNQVSLSCAVKGFYPSDIAVEWESNGQPENNYKTTPPVLDSDGSFFLVSRLTVDKSRWQEGNVFSCSVMHEALHNRFTQKSLSLSLGK chain 2: QSALTQPRSVSGSPGHSVTISCTGTSSDVGDYNYVSWYQQRPGKVPKLLIYDVSKRPSGVPDRFSGSKSGNTASLTISGLQAEDEAIYFCASYAGNYNVVFGGGTKLTVLGQPKAAPSVTLFPPSSEELQANKATLVCLISDFYPGAVTVAWKADSSPVKAGVETTTPSKQSNNKYAASSYLSLTPEQWKSHRSYSCQVTHEGSTVEKTVAPTECSGGSEGKSSGSGSESKSTEGKSSGSGSESKSTGGSQVQLVQSGSELKKPGASVKVSCKASGYTFNTYAMNWVRQAPGQGLEWMGWINTNTGNPTYAQGFTGRFVFSLDTSVSTAYLQISSLKAEDTAVYYCARRYFDWLLGAFDIWGQGTMVTVSSASTKGPSVFPLAPCSRSTSESTAALGCLVKDYFPEPVTVSWNSGALTSGVHTFPAVLQSSGLYSLSSVVTVPSSSLGTKTYTCNVDHKPSNTKVDKRVESKYGPPCPPCPAPEAAGGPSVFLFPPKPKDTLMISRTPEVTCVVVDVSQEDPEVQFNWYVDGVEVHNAKTKPREEQFNSTYRVVSVLTVLHQDWLNGKEYKCKVSNKGLPSSIEKTISKAKGQPREPQVYTLPPSQEEMTKNQVSLWCLVKGFYPSDIAVEWESNGQPENNYKTTPPVLDSDGSFFLYSRLTVDKSRWQEGNVFSCSVMHEALHNHYTQKSLSLSLGK |  |  |  |  |  |  |  | 11.3 nM | 2.8 nM | 0.33 nM

Source: patent US20250205280A1 (Janssen / Centocor, published 2025)
